{
  "source": "patent US20240043507A1",
  "about": "(RQ BIOTECHNOLOGY, published 2024)",
  "binders": {"B1": {"name": "mAb 40 (antibody, V domains shown)", "VH": "QVQLVESGGGLVQPGGSLRLSCAVSGFTVSRNYMSWVRQAPGKGLEWVSLIYSGGSTFYADSVKGRFTISRDNSKNTLYLQMNSLRAEDTAVYYCARDLFHRSGYHDYWGQGTLVTVSS", "VL": "not shown"}, "B2": {"name": "mAb 316 (antibody, V domains shown)", "VH": "not shown", "VL": "QAVLTQPPSASGSPGQSVTISCTGTSSDVGGYNYVSWYQQHPGKAPKLMIYEVSKRPSGVPDRFSGSKSGNTASLTVSGLQAEDEADYYCSSYAGSNHWVFGGGTKLTVL"}, "B3": {"name": "mAb 253H165L (antibody, V domains shown)", "VH": "not shown", "VL": "DIVMTQSPGTLSLSPGERATLSCRASQSVRSSYLAWYQQKPGQAPRLLIYGASRRGTGIPDRFSGSGSGTDFTLTISRLEPEDFAVYYCQQYGSSPWTFGQGTKVEIK"}, "B4": {"name": "mAb 158 (antibody, V domains shown)", "VH": "EVQLLESGGDLIQPGGSLRLSCAASGVTVSSNYMSWVRQAPGKGLEWVSIIYPGGSTFYADSVKGRFTISRDNSKNTLYLQMHSLRAEDTAVYYCARDLGSGDMDVWGKGTTVTVSS", "VL": "DIVMTQSPSFLSASVGDRVTITCRASQGISSYLAWYQQKPGKAPKLLIQAASTLQSGVPSRFSGSGSGTEFTLTISSLQPEDFATYYCQQLNSYRYTFGQGTKVEIK"}},
  "data": [
    {"target": "T1, SARS-CoV-2 spike on whole virus (SARS-CoV-2/human/AUS/VIC01/2020, Victoria) (SARS-CoV-2, UniProt P0DTC2 14-1273)", "experiment": "not given", "units": {"EC50 (read off the curve)": "nM"}, "values": [
      {"binder": "B1", "EC50 (read off the curve)": "~0.3"},
      {"binder": "B2", "EC50 (read off the curve)": "~0.1"},
      {"binder": "B3", "EC50 (read off the curve)": "~0.1"},
      {"binder": "B4", "EC50 (read off the curve)": "~0.5"}
    ]},
    {"target": "T1, SARS-CoV-2 spike on whole virus …", "experiment": "cell-based or functional assay", "units": {"Neutralisation IC50 (FRNT)": "µg/mL"}, "values": [
      {"binder": "B2", "Neutralisation IC50 (FRNT)": 0.01},
      {"binder": "B3", "Neutralisation IC50 (FRNT)": 0.003},
      {"binder": "B4", "Neutralisation IC50 (FRNT)": 0.034}
    ]}
  ]
}
